Values of other authors, collected in article PMC8594252.

Target: HSPE1 (Homo sapiens) (UniProt P61604)

Substance: HSPE1 (from UniProt P61604)
- Kd: 3 µM
